Results taken from patent US8604172B2, “Humanized antibody compositions and methods for binding lysophosphatidic acid” (Lpath, Inc., priority 2009, dated 2013).
Marks after values point to notes of the source that are not given here.

Legend:
[1] = Competition ELISA (18:1 LPA coat), competitor 16:0 LPA; type: binding; settings: maximum inhibition
Protocol: Many isoforms of LPA have been identified to be biologically active and it is preferable that the mAb recognize all of them to some extent to be of therapeutic relevance. The specificity of the anti-LPA mAbs was evaluated utilizing a competition assay in which the competitor lipid was added to the antibody-immobilized lipid mixture.
Competition ELISA assays were performed with the anti-LPA mAbs to assess their specificity. 18:1 LPA was captured on ELISA plates. Each competitor lipid (up to 10 uM) was serially diluted in BSA (1 mg/ml)-PBS and then incubated with the mAbs (3 nM). Mixtures were then transferred to LPA coated wells and the amount of bound antibody was measured with a secondary antibody. Data are normalized to maximum signal (A450) and are expressed as percent inhibition. Assays were performed in triplicate. IC50: Half maximum inhibition concentration; MI: Maximum inhibition (% of binding in the absence of inhibitor); - - -: not estimated because of weak inhibition. A high inhibition result indicates recognition of the competitor lipid by the antibody.

[2] = tested on: angiogenesis in Caki-1-containing plugs; assay: Matrigel Plug assay with Caki-1 cells, CD31 staining; type: in vivo, nude (NCr Nu/Nu) female mice; settings: 10 mg/kg every 3 days; vs saline; p<0.05
Protocol: One of the anti-LPA mAbs (B7) was tested for its ability to mitigate angiogenesis in vivo using the Matrigel Plug assay. This assay utilizes Matrigel, a proprietary mixture of tumor remnants including basement membranes derived from murine tumors. When Matrigel, or its derivate growth factor-reduced (GFR) Matrigel, is injected sc into an animal, it solidifies and forms a ‘plug.’ If pro-angiogenic factors are mixed with the matrix prior to placement, the plug will be invaded by vascular endothelial cells which eventually form blood vessels. Matrigel can be prepared either alone or mixed with recombinant growth factors (bFGF, VEGF), or tumor cells and then injected sc in the flanks of 6-week old nude (NCr Nu/Nu) female mice. In this example, Caki-1 (renal carcinoma) cells were introduced inside the Matrigel and are producing sufficient levels of VEGF and/or IL8 and LPA. Matrigel plugs were prepared containing 5×10^5 Caki-1 cells from mice treated with saline or with 10 mg/kg of anti-LPA mAb-B7, every 3 days starting 1 day prior to Matrigel implantation. Plugs were stained for endothelial CD31, followed by quantitation of the micro-vasculature formed in the plugs. Quantitation data were means+/−SEM of at least 16 fields/section from 3 plugs.

[3] = Competition ELISA specificity, competitor C1P; type: binding; settings: maximum inhibition, n = 3
Protocol: (§1) The specificity of the anti-LPA mAbs was assessed for their binding to LPA related biolipids such as distearoyl-phosphatidic acid, lysophosphatidylcholine, S1P, ceramide and ceramide-1-phosphate.

[4] = tested on: IL-6 release in SKOV3 cells; assay: LPA-induced IL-6 release in SKOV3 cells; type: cell-based, human; settings: Lpathomab 600 μg/mL; 1 μM 18:1 LPA; n = 3
Protocol: Anti-LPA antibodies inhibit the LPA-dependant release of human CXCL8/IL-8 in conditioned media of SKOV3 ovarian cells. SKOV3 cells (Lot No 4255558, passage 14) were harvested with 2 ml of 1× Trypsin EDTA (Mediatech Inc, Cat. No 25-053-CV) and resuspended in 8 ml of complete medium (10% FBS, Mediatech Inc. Cat. no 35-011-CV). The cells were centrifuged for 5 min ([…]) and re-suspended in 5 ml of complete medium. Cells were counted in duplicate with 0.4% Trypan blue (10 ul cells plus 90 ul Trypan blue, Invitrogen, Cat. No 15250-061) using a hemocytometer. In a 96-well plate, 1×10^5 cells per well were seeded (final volume 100 ul/well). The cells were allowed to attach and form a confluent monolayer by incubating overnight at 37° C. On the following day, cells were gently washed two times with minimum media (1 mg/ml BSA in McCoy's medium with L-glutamine, Mediatech, Cat. No 10-050-CV). […] The CXCL8/IL-8 levels in each supernatant were measured using the Quantikine human CXCL8/IL-8 ELISA kit according to vendor instructions (R&D Systems, Minneapolis Minn., Cat. No D8000C). The IL-6 levels were measured by ELISA using the Quantikine human IL-6 immunoassay kit (R&D systems, Cat. No. D6050). Data were analyzed by one-way ANOVA followed by Bonferroni's post test and expressed as human IL-8 or human IL-6 fold increase.

[5] = Competition ELISA specificity, competitor DSPA; type: binding; settings: maximum inhibition, n = 3
Protocol: as §1

[6] = Competition ELISA specificity, competitor LPC; type: binding; settings: maximum inhibition, n = 3
Protocol: as §1

[7] = tested on: SKOV3 tumor; assay: SKOV3 ovarian tumor progression in nude mice; type: in vivo; settings: with lowering of serum and ascites IL-8, IL-6, GM-CSF
Protocol: Human mAb LT3015 reduced ovarian tumor SKOV3 progression and circulating cytokines in biological fluids. Nude mice were engrafted with either 10 mg/kg LT3015, vehicle, or 2 mg/kg paclitaxel (Taxol). After 56 days, mice were sacrificed and the peritoneal cavities were analyzed for tumor burden and ascites fluid accumulation. Tumors were harvested and final tumor weights were determined along with ascites volumes. Data were analyzed by ANOVA and student's t-test analysis. […] Serum and ascites levels of IL-6, IL-8, GM-CSF and VEGF were measured using ELISA kits from R&D systems, Minneapolis Minn.

[8] = Solubility; type: physicochemical; settings: 6.6 mM phosphate, 154 mM sodium chloride, pH 7.4
[9] = BIAcore 3000 kinetics, LPA immobilized on sensor chip; type: binding
Protocol: The kinetics parameters ka (association rate constant), kd (disassociation rate constant) and KD ([…] equilibrium constant) were determined for the 6 lead candidates using the BIAcore 3000 Biosensor machine. In this study, LPA was immobilized on the sensor surface and the anti-LPA mAbs were flowed in solution across the surface.
LPA was immobilized to the sensor chip at densities ranging 150 resonance units. Dilutions of each mAb were passed over the immobilized LPA and kinetic constants were obtained by nonlinear regression of association/dissociation phases. Errors are given as the standard deviation using at least three determinations in duplicate runs. Apparent affinities were determined by […].
ka=Association rate constant in M^−1s^−1kd=Dissociation rate constant in s^−1

B1: LT3000: Murine anti-LPA monoclonal antibody clone B7, IgG1k, renamed Lpathomab, also known as LT3000; hybridoma 504B7.1, ATCC PTA-8420 (antibody, V domains shown)
VH: QVQLQQSGAELVRPGTSVKVSCKASGYGFINYLIEWIKQRPGQGLEWIGLINPGSDYTNYNENFKGKATLTADKSSSTAYMHLSSLTSEDSAVYFCARRFGYYGSGNYFDYWGQGTTLTVSS
VL: DVVMTQTPLSLPVSLGDQASISCTSGQSLVHINGNTYLHWYLQKPGQSPKLLIYKVSNLFSGVPDRFSGSGSGTDFTLKISRVEAEDLGVYFCSQSTHFPFTFGTGTKLEIK
MI, 16:0 LPA [1]: 62.9% | reduction in angiogenesis [2]: greater than 50% | MI (%), C1P [3]: 1.0% | IL-6 Release, % Inhibition (over LPA taken as 100) [4]: 23* % | MI (%), DSPA [5]: 0% | MI (%), LPC [6]: 0% | SKOV3 tumor progression [7]: significantly reduced | Solubility [8]: >40 mg/mL in 6.6 mM phosphate, 154 mM sodium | Kd ([9]; apparent affinity): 1.6 ± 0.1 pM | ka (M^−1 s^−1) ([9]; association rate constant, ± standard deviation): 6.2 ± 0.1 × 10^5 M^−1 s^−1 | kd ([9]; dissociation rate constant): 1e-06 s⁻¹
